# Laboratory results taken from patent US20150239980A1 (NEOTOPE BOSCIENCES, published 2015).
# T1: Murine MCAM domain 1 (Ig1) with human IgG Fc tag (mouse, UniProt Q8R2Y2 24-131, limits assumed)
# T1 construct: domain: domain 1 (Ig1); also called MCAM Fc domain 1; Fc domain 1 alone; not shown: human IgG Fc tag
# T1 sequence (looked up): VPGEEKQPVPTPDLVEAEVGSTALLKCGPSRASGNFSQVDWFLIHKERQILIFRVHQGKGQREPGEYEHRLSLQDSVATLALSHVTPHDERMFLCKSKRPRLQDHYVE
# T2: human MCAM (melanoma cell adhesion molecule) expressed on transfected CHO cells (human, UniProt P43121 24-646)
# T2 construct: also called hMCAM; CD146
# T2 chain: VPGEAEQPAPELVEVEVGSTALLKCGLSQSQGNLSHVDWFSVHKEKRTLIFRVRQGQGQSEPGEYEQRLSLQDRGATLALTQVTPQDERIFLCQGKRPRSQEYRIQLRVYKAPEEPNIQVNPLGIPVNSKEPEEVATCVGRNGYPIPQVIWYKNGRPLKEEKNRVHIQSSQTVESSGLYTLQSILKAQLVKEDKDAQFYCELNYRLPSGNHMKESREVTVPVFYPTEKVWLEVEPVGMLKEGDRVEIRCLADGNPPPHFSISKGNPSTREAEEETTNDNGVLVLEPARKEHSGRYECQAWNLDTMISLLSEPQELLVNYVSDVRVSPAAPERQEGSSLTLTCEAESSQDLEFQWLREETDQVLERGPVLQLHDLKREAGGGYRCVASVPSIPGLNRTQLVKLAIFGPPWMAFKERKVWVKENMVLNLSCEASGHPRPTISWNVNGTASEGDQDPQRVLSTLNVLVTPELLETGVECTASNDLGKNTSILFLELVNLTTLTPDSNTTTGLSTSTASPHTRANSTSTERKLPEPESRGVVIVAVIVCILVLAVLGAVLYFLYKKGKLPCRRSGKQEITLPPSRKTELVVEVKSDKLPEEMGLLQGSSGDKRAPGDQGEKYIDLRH
# T3: murine MCAM-Fc fusion protein (mouse, UniProt Q8R2Y2 24-563)
# T3 construct: extracellular domain; produced in CHO cells; also called mouse MCAM-Fc; mouse MCAMhFc; not shown: fused to human IgG
# T3 sequence (looked up): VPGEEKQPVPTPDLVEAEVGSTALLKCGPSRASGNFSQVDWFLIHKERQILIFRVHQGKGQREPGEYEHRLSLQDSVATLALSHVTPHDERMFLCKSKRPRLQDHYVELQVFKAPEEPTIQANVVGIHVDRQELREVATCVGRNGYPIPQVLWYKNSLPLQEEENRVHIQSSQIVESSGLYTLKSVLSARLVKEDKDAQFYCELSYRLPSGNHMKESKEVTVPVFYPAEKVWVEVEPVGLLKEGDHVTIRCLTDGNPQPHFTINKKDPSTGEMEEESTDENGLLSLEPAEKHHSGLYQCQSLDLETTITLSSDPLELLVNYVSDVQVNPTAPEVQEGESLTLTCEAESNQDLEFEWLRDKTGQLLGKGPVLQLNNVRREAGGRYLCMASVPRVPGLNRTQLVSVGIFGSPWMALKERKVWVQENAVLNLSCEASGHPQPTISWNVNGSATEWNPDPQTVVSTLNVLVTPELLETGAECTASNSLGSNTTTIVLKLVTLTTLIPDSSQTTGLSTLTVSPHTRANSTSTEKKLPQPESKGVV
# T4: Ig2 domain (mouse, UniProt Q8R2Y2)
# T4 construct: isolated domain 2; also called Murine MCAM domain 2 (Ig2) with human IgG Fc tag
# T4 sequence (Fc fusion chain, looked up): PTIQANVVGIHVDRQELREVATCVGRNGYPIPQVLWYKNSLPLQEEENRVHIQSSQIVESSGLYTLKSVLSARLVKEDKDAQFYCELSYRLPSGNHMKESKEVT
# T5: Recombinant human laminin-α4 (R&D systems) (human, UniProt Q16363-2 826-1816)
# T5 construct: also called laminin α-4 chain
# T5 sequence (looked up): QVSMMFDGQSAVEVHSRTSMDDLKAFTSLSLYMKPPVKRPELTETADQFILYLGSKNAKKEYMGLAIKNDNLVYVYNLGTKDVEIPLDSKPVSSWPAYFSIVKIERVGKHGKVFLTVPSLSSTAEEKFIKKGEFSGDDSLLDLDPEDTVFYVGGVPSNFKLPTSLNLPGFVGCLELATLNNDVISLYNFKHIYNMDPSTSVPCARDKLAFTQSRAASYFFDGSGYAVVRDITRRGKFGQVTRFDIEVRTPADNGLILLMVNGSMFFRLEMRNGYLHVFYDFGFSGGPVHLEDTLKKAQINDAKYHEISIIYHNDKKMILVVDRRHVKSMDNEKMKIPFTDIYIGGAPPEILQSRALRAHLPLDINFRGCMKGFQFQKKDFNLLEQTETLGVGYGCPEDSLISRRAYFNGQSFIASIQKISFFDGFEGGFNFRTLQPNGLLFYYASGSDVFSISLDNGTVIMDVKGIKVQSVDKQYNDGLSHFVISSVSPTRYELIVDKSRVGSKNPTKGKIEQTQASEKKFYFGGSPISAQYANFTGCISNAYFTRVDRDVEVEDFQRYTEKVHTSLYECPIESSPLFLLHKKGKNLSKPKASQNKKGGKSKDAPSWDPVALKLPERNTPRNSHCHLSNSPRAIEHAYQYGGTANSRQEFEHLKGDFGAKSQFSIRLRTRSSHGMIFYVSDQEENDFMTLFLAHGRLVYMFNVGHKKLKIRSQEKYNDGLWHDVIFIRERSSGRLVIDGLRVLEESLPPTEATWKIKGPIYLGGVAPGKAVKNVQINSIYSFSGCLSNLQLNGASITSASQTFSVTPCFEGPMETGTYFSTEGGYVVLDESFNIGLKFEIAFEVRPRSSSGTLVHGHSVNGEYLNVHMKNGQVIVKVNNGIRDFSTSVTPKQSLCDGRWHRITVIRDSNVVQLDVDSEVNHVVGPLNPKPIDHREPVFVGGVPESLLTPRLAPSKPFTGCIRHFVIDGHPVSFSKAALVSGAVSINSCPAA
# B1: anti-MCAM monoclonal antibody clone 15 (antibody, V domains shown)
# VH: EVRLVESGGGLVQPGKSMKLSCVASGFKFSNYYMSWVRQAPAKGLEWVASISDGGGDTFCRDLVKGRFTISRDNAKSTLYLQMDSLRPEDTATYYCARRGAAMGGVMDAWGQGTSVTVSS
# VL: DIVMTQSPSSLAVSAGETVSIHCKSSQSLLYSGTQKNYLAWFQQKPGQSPKLLIFWASTRQSGVPDRFIGRGSGTDFTLTISGVQAEDLAIYYCQQYYDTLTDTFGAGTKLELKR
# notes: rat monoclonal raised against murine MCAM-Fc; also called Anti-MCAM Clone 15; anti-mouse MCAM clone 15
# B2: mouse MCAM expressed on transfected CHO cells (receptor, UniProt Q8R2Y2 24-648, looked up)
# chain: VPGEEKQPVPTPDLVEAEVGSTALLKCGPSRASGNFSQVDWFLIHKERQILIFRVHQGKGQREPGEYEHRLSLQDSVATLALSHVTPHDERMFLCKSKRPRLQDHYVELQVFKAPEEPTIQANVVGIHVDRQELREVATCVGRNGYPIPQVLWYKNSLPLQEEENRVHIQSSQIVESSGLYTLKSVLSARLVKEDKDAQFYCELSYRLPSGNHMKESKEVTVPVFYPAEKVWVEVEPVGLLKEGDHVTIRCLTDGNPQPHFTINKKDPSTGEMEEESTDENGLLSLEPAEKHHSGLYQCQSLDLETTITLSSDPLELLVNYVSDVQVNPTAPEVQEGESLTLTCEAESNQDLEFEWLRDKTGQLLGKGPVLQLNNVRREAGGRYLCMASVPRVPGLNRTQLVSVGIFGSPWMALKERKVWVQENAVLNLSCEASGHPQPTISWNVNGSATEWNPDPQTVVSTLNVLVTPELLETGAECTASNSLGSNTTTIVLKLVTLTTLIPDSSQTTGLSTLTVSPHTRANSTSTEKKLPQPESKGVVIVAVIVCTLVLAVLGAALYFFYKKGKLPCGRSGKQEITLPPTRKSEFVVEVKSDKLPEEMALLQGSNGDKRAPGDQGEKYIDLRH
# notes: whole, on cells; also called murine MCAM
# B3: human MCAM domain 1 (amino acids 19-129), Fc-tagged (Fc fusion, not shown: a dimerising Fc or GST)
# chain: PRVAGVPGEAEQPAPELVEVEVGSTALLKCGLSQSQGNLSHVDWFSVHKEKRTLIFRVRQGQGQSEPGEYEQRLSLQDRGATLALTQVTPQDERIFLCQGKRPRSQEYRIQ
# notes: also called MCAM Fc domain 1
# Assays:
# [1] = biological target: T1, Murine MCAM domain 1 (Ig1) with human …; assay: ForteBio Octet Red, domain-hFc on anti-human IgG Fc sensor
# Text: (§1) The following protocol was used: ForteBio Domain Mapping Protocol. ForteBio anti-human IgG Fc biosensors were used to immobilize various mouse MCAMhFc domains including full length mouse MCAMhFc protein on to biosensor surface. These sensors were dipped into either clone 15 or 17 MCAM specific antibody for detection of binding to these domains or full length protein. After loading these samples into a black 96 well plate, the Octet Red was programmed as follows: 60 seconds for baseline #1; 180 seconds for loading various domains; 60 seconds for baseline #2; 180 seconds for association of antibody to domain; and 240 seconds for dissociation of antibody from domain.
# (§2) 1. Mouse MCAMhFc final concentration @ 5 ug/ml [0466] 2. Antibody clone 15 or 17 @ 5 ug/ml [0467] 3. ForteBio anti-human IgG Fc Capture (AHC) biosensors for kinetics experiments, cat#18-5060 [0468] 4. […] 5. ForteBio Octet Red machine [0470] 6. Fresh tissue culture medium, DMEM with 20% FCS, was used as buffer for dilution
# [2] = biological target: B2; assay: flow cytometry, mouse MCAM transfected cells mixed with CFSE-labelled untransfected cells
# Procedure: For the generation of antibodies capable of binding to murine MCAM, MCAM-Fc was generated by fusing the extracellular domain of murine MCAM to human IgG and produced in CHO cells using standard techniques. Lou/M rats were immunized with 100 μg of MCAM-Fc protein in CFA (1:1 volume). Rats were boosted two times at two week intervals with MCAM-Fc protein in incomplete Freund's adjuvant (IFA) (1:1 volume). Hybridomas were generated from immunized rats using standard protocols and clones were selected by Clonepix. CHO cells were transfected with the full length murine MCAM gene and selected for stable expression using neomycin and standard techniques. Parental CHO cells (MCAM negative) were fluorescently labeled with carboxyfluorescein succinimidyl ester (CFSE) using standard techniques and mixed at a 1:1 ratio with unlabeled MCAM transfected CHO cells. Hybridoma supernatants were incubated with this mixture of cells for 30 minutes and binding of potential MCAM specific antibodies was detected with a fluorescently labeled anti-rat secondary antibody (Jackson Immuno) by flow cytometry.
# [3] = biological target: T2, human MCAM (melanoma cell adhesion …); assay: flow cytometry, human MCAM transfected cells mixed with CFSE-labelled untransfected cells
# [4] = biological target: T3, murine MCAM-Fc fusion protein; assay: ForteBio Octet Red, anti-human IgG Fc (AHC) biosensors loaded with mouse MCAM-hFc proteins (5 ug/ml), dipped into antibody (5 ug/ml) or SP2 media
# Text: as §1, §2
# (§3) For FIGS. 10A-B, clones 15 and 17 were tested against the following protein samples (all have human IgG Fc tag): Murine MCAM; Human Fc full length protein; Murine MCAM domain 1 (Ig1); Murine MCAM domain 2 (Ig2); and Murine MCAM domain 1 and 2 (Ig1-2A).
# [5] = biological target: T4, Ig2 domain; assay: as above
# Text: as §1, §2, §3
# [6] = biological target: T6, recombinant human laminin 511 (Biolamina) (human, UniProt O15230 36-3695; P07942 22-1786; P11047 34-1609); assay: flow cytometry, mouse MCAM CHO cells, pan-laminin antibody
# T6 construct: negative control; also called laminin 10 (α5β1γ1)
# [7] = biological target: T6, recombinant human laminin 511 …; assay: SPR, Biacore T200
# [8] = biological target: T5, Recombinant human laminin-α4 (R&D …); assay: SPR, Biacore T200
binder,measurement,setting,value
B1,binding result,[1],no binding (tested: 5 ug/ml)
same,binding result,[2],binds
same,binding result,[3],no binding
same,binding result,[4],binds
same,binding result,[5],no binding (tested: 5 ug/ml)
B2,binding result,[6],no binding (tested: 10 µg/ml)
B3,binding result,[7],no binding (tested: 5-175 nM)
same,binding result,[8],no binding (tested: 5-175 nM)
